Data set [1] concerns HeLa Kyoto. Kind of data set: solubility in G1/S (NP-40 vs SDS abundance) (log2 ratio); higher = more soluble. Particulars: cell cycle stage: G1/S.
Data set [2] relates to HeLa Kyoto. Kind of data set: melting temperature (median over replicates), in situ; higher = more thermally stable.
In data set [3] the test system is HeLa Kyoto. Kind of data set: solubility change mitosis vs G1/S (difference of NP-40 vs SDS log2 ratios) (log2 ratio difference); higher = more soluble in mitosis.
The subject of data set [4] is HeLa Kyoto. The data set is described as follows: thermal stability score vs G1/S (z-score of summed log2 fold changes over temperatures); higher = more thermally stable than in G1/S.
[5] abbreviates: cell cycle stage: early G1 (4.5 h after nocodazole release).

The results in this text go back to the supplement of paper PMC5998384.
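Wherever melting temperature (median over replicates), in situ is given: HeLa Kyoto cells synchronized by double thymidine or nocodazole block, proteins quantified by TMT10plex mass spectrometry, three independent biological replicates.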
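Wherever solubility change mitosis vs G1/S (difference of NP-40 vs SDS log2 ratios) is given: synchronized HeLa Kyoto cells (double thymidine block for G1/S, nocodazole release for mitosis), protein amounts in NP-40 versus SDS lysates quantified by mass spectrometry, three biological replicates.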
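Wherever solubility in G1/S (NP-40 vs SDS abundance) is given: HeLa Kyoto cells arrested at G1/S by double thymidine block, proteins quantified by TMT10plex mass spectrometry in mild NP-40 versus SDS extracts, three biological replicates.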
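Wherever thermal stability score vs G1/S (z-score of summed log2 fold changes over temperatures) is given: synchronized HeLa Kyoto cells, proteins quantified by TMT10plex mass spectrometry, three biological replicates, mitosis taken 0.5 h after nocodazole release, G1/S directly after double thymidine block.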

Consider “MRRQWGSAMRAAEQAGCMVSASRAGQPEAGPWSCSGVILSRSPGLVLCHGGIFVPFLRAGSEVLTAAGAVFLPGDSCRDDLRLHVQWAPTAAGPGGGAERGRPGLCTPQCASLEPGPPAPSRGRPLQPRLPAELLLLLSCPAFWAHFARLFGDEAAEQWRFSSAARDDEVSEDEEADQLRALGWFALLGVRLGQEEVEEERGPAMAVSPLGAVPKGAPLLVCGSPFGAFCPDIFLNTLSCGVLSNVAGPLLLTDARCLPGTEGGGVFTARPAGALVALVVAPLCWKAGEWVGFTLLCAAAPLFRAARDALHRLPHSTAALAALLPPEVGVPWGLPLRDSGPLWAAAAVLVECGTVWGSGVAVAPRLVVTCRHVSPREAARVLVRSTTPKSVAIWGRVVFATQETCPYDIAVVSLEEDLDDVPIPVPAEHFHEGEAVSVVGFGVFGQSCGPSVTSGILSAVVQVNGTPVMLQTTCAVHSGSSGGPLFSNHSGNLLGIITSNTRDNNTGATYPHLNFSIPITVLQPALQQYSQTQDLGGLRELDRAAEPVRVVWRLQRPLAEAPRSKL [TYSND1]”, for which the “solubility in G1/S (log2)” value in the data set on HeLa Kyoto [1] was -0.163. Also, the values for the melting temperature with HeLa Kyoto [2] (cell cycle stage: G1/S) and in the data set with HeLa Kyoto [2] (cell cycle stage: mitosis) were 55.1 °C and 54 °C, respectively. The “solubility change mitosis (log2)” value with HeLa Kyoto [3] stood at 0.0273. Also, the thermal stability score in the data set with HeLa Kyoto [4] (setting [5]) is -2.49; in the data set on HeLa Kyoto [4] (cell cycle stage: mitosis), -2.64.

Consider “MRSLGANMAAALRAAGVLLRDPLASSSWRVCQPWRWKSGAAAAAVTTETAQHAQGAKPQVQPQKRKPKTGILMLNMGGPETLGDVHDFLLRLFLDRDLMTLPIQNKLAPFIAKRRTPKIQEQYRRIGGGSPIKIWTSKQGEGMVKLLDELSPNTAPHKYYIGFRYVHPLTEEAIEEMERDGLERAIAFTQYPQYSCSTTGSSLNAIYRYYNQVGRKPTMKWSTIDRWPTHHLLIQCFADHILKELDHFPLEKRSEVVILFSAHSLPMSVVNRGDPYPQEVSATVQKVMERLEYCNPYRLVWQSKVGPMPWLGPQTDESIKGLCERGRKNILLVPIAFTSDHIETLYELDIEYSQVLAKECGVENIRRAESLNGNPLFSKALADLVHSHIQSNELCSKQLTLSCPLCVNPVCRETKSFFTSQQL [FECH]”, for which the “solubility in G1/S (log2)” value in the data set with HeLa Kyoto [1] was 0.25. In addition, the melting temperature turned out to be 51.9 °C in the data set with HeLa Kyoto [2] (cell cycle stage: G1/S) and 53.4 °C with HeLa Kyoto [2] (cell cycle stage: mitosis). Moreover, the “solubility change mitosis (log2)” value in the data set on HeLa Kyoto [3] was -0.0764. Besides, the thermal stability score in the data set on HeLa Kyoto [4] (setting [5]) was -0.37; in the data set on HeLa Kyoto [4] (cell cycle stage: mitosis), -0.327.

With “MRTAGRDPVPRRSPRWRRAVPLCETSAGRRVTQLRGDDLRRPATMKGKERSPVKAKRSRGGEDSTSRGERSKKLGGSGGSNGSSSGKTDSGGGSRRSLHLDKSSSRGGSREYDTGGGSSSSRLHSYSSPSTKNSSGGGESRSSSRGGGGESRSSGAASSAPGGGDGAEYKTLKISELGSQLSDEAVEDGLFHEFKRFGDVSVKISHLSGSGSGDERVAFVNFRRPEDARAAKHARGRLVLYDRPLKIEAVYVSRRRSRSPLDKDTYPPSASVVGASVGGHRHPPGGGGGQRSLSPGGAALGYRDYRLQQLALGRLPPPPPPPLPRDLERERDYPFYERVRPAYSLEPRVGAGAGAAPFREVDEISPEDDQRANRTLFLGNLDITVTESDLRRAFDRFGVITEVDIKRPSRGQTSTYGFLKFENLDMSHRAKLAMSGKIIIRNPIKIGYGKATPTTRLWVGGLGPWVPLAALAREFDRFGTIRTIDYRKGDSWAYIQYESLDAAHAAWTHMRGFPLGGPDRRLRVDFADTEHRYQQQYLQPLPLTHYELVTDAFGHRAPDPLRGARDRTPPLLYRDRDRDLYPDSDWVPPPPPVRERSTRTAATSVPAYEPLDSLDRRRDGWSLDRDRGDRDLPSSRDQPRKRRLPEESGGRHLDRSPESDRPRKRHCAPSPDRSPELSSSRDRYNSDNDRSSRLLLERPSPIRDRRGSLEKSQGDKRDRKNSASAERDRKHRTTAPTEGKSPLKKEDRSDGSAPSTSTASSKLKSPSQKQDGGTAPVASASPKLCLAWQGMLLLKNSNFPSNMHLLQGDLQVASSLLVEGSTGGKVAQLKITQRLRLDQPKLDEVTRRIKVAGPNGYAILLAVPGSSDSRSSSSSAASDTATSTQRPLRNLVSYLKQKQAAGVISLPVGGNKDKENTGVLHAFPPCEFSQQFLDSPAKALAKSEEDYLVMIIVRGFGFQIGVRYENKKRENLALTLL [RBM15]”, the “solubility in G1/S (log2)” value in the data set on HeLa Kyoto [1] is -0.606. Moreover, the melting temperature with HeLa Kyoto [2] (cell cycle stage: G1/S) stood at 46.7 °C; in the data set with HeLa Kyoto [2] (cell cycle stage: mitosis) it was 48.7 °C. For the same sequence, in the data set on HeLa Kyoto [3], the “solubility change mitosis (log2)” value was 0.598. Also, the thermal stability score in the data set on HeLa Kyoto [4] (setting [5]) amounted to 2.61; in the data set on HeLa Kyoto [4] (cell cycle stage: mitosis), 6.38.

For the sequence “MRVAAATAAAGAGPAMAVWTRATKAGLVELLLRERWVRVVAELSGESLSLTGDAAAAELEPALGPAAAAFNGLPNGGGAGDSLPGSPSRGLGPPSPPAPPRGPAGEAGASPPVRRVRVVKQEAGGLGISIKGGRENRMPILISKIFPGLAADQSRALRLGDAILSVNGTDLRQATHDQAVQALKRAGKEVLLEVKFIREVTPYIKKPSLVSDLPWEGAAPQSPSFSGSEDSGSPKHQNSTKDRKIIPLKMCFAARNLSMPDLENRLIELHSPDSRNTLILRCKDTATAHSWFVAIHTNIMALLPQVLAELNAMLGATSTAGGSKEVKHIAWLAEQAKLDGGRQQWRPVLMAVTEKDLLLYDCMPWTRDAWASPCHSYPLVATRLVHSGSGCRSPSLGSDLTFATRTGSRQGIEMHLFRVETHRDLSSWTRILVQGCHAAAELIKEVSLGCMLNGQEVRLTIHYENGFTISRENGGSSSILYRYPFERLKMSADDGIRNLYLDFGGPEGELTMDLHSCPKPIVFVLHTFLSAKVTRMGLLV [SNTB2]”, in the data set with HeLa Kyoto [1], the “solubility in G1/S (log2)” value was -0.0262. The figures for the melting temperature with HeLa Kyoto [2] (cell cycle stage: G1/S) and in the data set on HeLa Kyoto [2] (cell cycle stage: mitosis) were 49.4 °C and 50.3 °C, respectively. Besides, the “solubility change mitosis (log2)” value in the data set on HeLa Kyoto [3] was 0.0092. In addition, the values for the thermal stability score with HeLa Kyoto [4] (setting [5]) and with HeLa Kyoto [4] (cell cycle stage: mitosis) were 0.506 and 0.99, respectively.
